Data reported in patent US20100003237.

B1: Wild type hMMP-1 clone BAP006-10 (pET303CTHis, expressed in BL21 (DE3) E. coli), activated with AMPA (protein)
chain: FVLTEGNPRWEQTHLTYRIENYTPDLPRADVDHAIEKAFQLWSNVTPLTFTKVSEGQADIMISFVRGDHRDNSPFDGPGGNLAHAFQPGPGIGGDAHFDEDERWTNNFREYNLHRVAAHELGHSLGLSHSTDIGALMYPSYTFSGDVQLAQDDIDGIQAIYGRSQNPVQPIGPQTPKACDSKLTFDAITTIRGEVMFFKDRFYMRTNPFYPEVELNFISVFWPQLPNGLEAAYEFADRDEVRFFKGNKYWAVQGQNVLHGYPKDIYSSFGFPRTVKHIDAALSEENTGKTYFFVANKYWRYDEYKRSMDPGYPKMIAHDFPGIGHKVDAVFMKDGFFYFFHGTRQYKFDPKTKRILTLQKANSWFNCRKNHHHHH
B2: Wild type hMMP-1 clone BAP006-2 (expressed in CHO-S cells), activated with AMPA (protein)
chain: FVLTEGNPRWEQTHLTYRIENYTPDLPRADVDHAIEKAFQLWSNVTPLTFTKVSEGQADIMISFVRGDHRDNSPFDGPGGNLAHAFQPGPGIGGDAHFDEDERWTNNFREYNLHRVAAHELGHSLGLSHSTDIGALMYPSYTFSGDVQLAQDDIDGIQAIYGRSQNPVQPIGPQTPKACDSKLTFDAITTIRGEVMFFKDRFYMRTNPFYPEVELNFISVFWPQLPNGLEAAYEFADRDEVRFFKGNKYWAVQGQNVLHGYPKDIYSSFGFPRTVKHIDAALSEENTGKTYFFVANKYWRYDEYKRSMDPGYPKMIAHDFPGIGHKVDAVFMKDGFFYFFHGTRQYKFDPKTKRILTLQKANSWFNCRKN
B3: hMMP-1 (purchased from R&D Systems, #901-MP), activated with AMPA (protein)
chain: B2 chain
B4: cathepsin S (R&D systems, activated) (protein)
chain: LPDSVDWREKGCVTEVKYQGSCGACWAFSAVGALEAQLKLKTGKLVSLSAQNLVDCSTEKYGNKGCNGGFMTTAFQYIIDNKGIDSDASYPYKAMDQKCQYDSKYRAATCSKYTELPYGREDVLKEAVANKGPVSVGVDARHPSFFLYRSGVYYEPSCTQNVNHGVLVVGYGDLNGKEYWLVKNSWGHNFGEEGYIRMARNKGNHCGIASFPSYPEI

What was measured:
[1] = molecular target: FITC-labeled collagen (Elastin #CF308)
[2] = molecular target: FITC-labeled collagen (Sigma #C4361)
[3] = molecular target: insoluble collagen conjugated to fluorescein isothiocyanate (FITC) (Anaspec #85111 or Sigma Collagen #C4361)
[4] = molecular target: Soluble rat tail collagen Type I, P02454
Sequence of Soluble rat tail collagen Type I, P02454 (P02454 152-1207, chain 1 of 2): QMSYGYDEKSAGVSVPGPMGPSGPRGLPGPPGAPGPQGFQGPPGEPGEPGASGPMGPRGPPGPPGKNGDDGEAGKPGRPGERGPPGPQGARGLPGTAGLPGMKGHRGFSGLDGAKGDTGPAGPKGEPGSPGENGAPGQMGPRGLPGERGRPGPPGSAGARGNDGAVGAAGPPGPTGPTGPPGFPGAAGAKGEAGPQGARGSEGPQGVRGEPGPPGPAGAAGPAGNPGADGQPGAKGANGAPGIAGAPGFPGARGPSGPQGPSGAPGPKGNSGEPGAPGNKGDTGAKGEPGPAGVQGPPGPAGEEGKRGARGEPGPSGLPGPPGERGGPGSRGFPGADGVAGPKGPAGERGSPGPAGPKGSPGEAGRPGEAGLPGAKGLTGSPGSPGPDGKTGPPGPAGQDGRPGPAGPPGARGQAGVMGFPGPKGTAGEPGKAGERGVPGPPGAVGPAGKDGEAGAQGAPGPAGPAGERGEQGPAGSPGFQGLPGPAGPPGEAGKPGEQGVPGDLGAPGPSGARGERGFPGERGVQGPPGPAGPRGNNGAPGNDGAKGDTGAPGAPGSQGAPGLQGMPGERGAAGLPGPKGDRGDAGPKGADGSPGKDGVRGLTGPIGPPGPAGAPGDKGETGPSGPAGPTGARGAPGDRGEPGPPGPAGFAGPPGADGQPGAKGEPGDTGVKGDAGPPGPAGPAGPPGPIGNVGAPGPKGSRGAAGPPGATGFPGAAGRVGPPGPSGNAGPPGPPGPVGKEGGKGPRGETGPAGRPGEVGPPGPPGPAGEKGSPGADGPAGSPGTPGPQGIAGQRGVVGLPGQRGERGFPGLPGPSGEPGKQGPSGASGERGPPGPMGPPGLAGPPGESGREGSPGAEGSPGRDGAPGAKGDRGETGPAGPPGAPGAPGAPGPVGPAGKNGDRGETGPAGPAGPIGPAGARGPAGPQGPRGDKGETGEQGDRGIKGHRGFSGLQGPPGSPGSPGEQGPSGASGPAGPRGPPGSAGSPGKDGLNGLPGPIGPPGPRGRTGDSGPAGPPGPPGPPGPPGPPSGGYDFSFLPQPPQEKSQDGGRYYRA
Sequence of Soluble rat tail collagen Type I, P02454 (chain, as listed by the source, chain 2 of 2): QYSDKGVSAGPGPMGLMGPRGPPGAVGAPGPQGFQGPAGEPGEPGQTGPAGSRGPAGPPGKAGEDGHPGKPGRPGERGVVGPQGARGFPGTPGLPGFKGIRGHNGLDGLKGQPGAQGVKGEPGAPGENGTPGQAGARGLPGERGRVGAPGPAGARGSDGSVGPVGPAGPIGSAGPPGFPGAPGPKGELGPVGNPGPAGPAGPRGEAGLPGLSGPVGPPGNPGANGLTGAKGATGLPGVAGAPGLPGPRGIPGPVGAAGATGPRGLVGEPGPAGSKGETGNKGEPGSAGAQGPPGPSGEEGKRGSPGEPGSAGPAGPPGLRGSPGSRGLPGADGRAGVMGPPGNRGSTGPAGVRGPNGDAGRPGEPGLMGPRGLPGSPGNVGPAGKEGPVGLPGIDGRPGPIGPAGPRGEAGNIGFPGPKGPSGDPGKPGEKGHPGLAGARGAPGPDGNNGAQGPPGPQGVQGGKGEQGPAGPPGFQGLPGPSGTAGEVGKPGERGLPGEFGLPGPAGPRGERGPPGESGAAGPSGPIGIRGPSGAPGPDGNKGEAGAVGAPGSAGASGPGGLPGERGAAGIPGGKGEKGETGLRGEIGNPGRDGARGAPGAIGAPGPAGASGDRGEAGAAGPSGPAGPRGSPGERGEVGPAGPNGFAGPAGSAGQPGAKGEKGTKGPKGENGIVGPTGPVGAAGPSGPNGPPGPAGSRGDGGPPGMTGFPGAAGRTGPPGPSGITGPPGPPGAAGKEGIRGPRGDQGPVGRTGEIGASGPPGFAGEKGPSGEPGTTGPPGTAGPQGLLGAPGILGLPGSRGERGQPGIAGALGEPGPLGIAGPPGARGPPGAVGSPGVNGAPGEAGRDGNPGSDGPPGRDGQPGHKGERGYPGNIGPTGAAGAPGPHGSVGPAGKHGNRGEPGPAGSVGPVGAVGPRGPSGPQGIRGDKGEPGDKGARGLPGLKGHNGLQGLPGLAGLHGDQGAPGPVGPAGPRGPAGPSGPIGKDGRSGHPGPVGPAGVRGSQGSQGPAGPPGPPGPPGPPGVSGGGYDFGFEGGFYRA

Protein	RFU, 37° C. (fluorescence of supernatant after 144 hours, replicate 1) [1] [RFU]	RFU, 37° C. (fluorescence of supernatant after 144 hours, replicate 2) [1] [RFU]	RFU, Avg 37° C. (fluorescence of supernatant after 144 hours) [1] [RFU]	RFU, 37° C. (fluorescence of supernatant after 144 hours, replicate 1) [2] [RFU]	RFU, 37° C. (fluorescence of supernatant after 144 hours, replicate 2) [2] [RFU]	RFU, Avg 37° C. (fluorescence of supernatant after 144 hours) [2] [RFU]	cleavage of insoluble collagen (7.5% SDS polyacrylamide gel, Coomassie Blue) [3]	degradation of soluble rat tail collagen Type I (1 hour at 37° C., SDS-Page gels, Coomassie Blue staining) [4]
B1	2670	3060	2860	1290	1340	1310	after 24 hours incubation at 25 °C or 37° C., hMMP-1 partially cleaved the α1(I) and α2(I) collagen chains into ¾ and ¼ length digestion products for all hMMP-1 proteins tested	–
B2	1730	2300	2010	1270	1280	1270	after 24 hours incubation at 25 °C or 37° C., hMMP-1 partially cleaved the α1(I) and α2(I) collagen chains into ¾ and ¼ length digestion products for all hMMP-1 proteins tested	–
B3	3490	2980	3240	1160	1140	1150	after 24 hours incubation at 25 °C or 37° C., hMMP-1 partially cleaved the α1(I) and α2(I) collagen chains into ¾ and ¼ length digestion products for all hMMP-1 proteins tested	–
B4	–	–	–	–	–	–	–	Cathepsins B, D and S showed some slight degradation of rat collagen at the manufacture specified pH and no degradation of rat collagen at pH 8.0
